Measurements published in PMC12881670, “Investigation into ligand selectivity and bias at the formyl peptide receptor family” (The Journal of Pharmacology and Experimental Therapeutics, 2025).

Tests used:
[1] = biological target: T1, FLAG-Hs_FPR1 C-terminally fused to Renilla Luciferase 8 (human, UniProt P21462 1-350); assay: cell-based or functional assay
T1 sequence (looked up): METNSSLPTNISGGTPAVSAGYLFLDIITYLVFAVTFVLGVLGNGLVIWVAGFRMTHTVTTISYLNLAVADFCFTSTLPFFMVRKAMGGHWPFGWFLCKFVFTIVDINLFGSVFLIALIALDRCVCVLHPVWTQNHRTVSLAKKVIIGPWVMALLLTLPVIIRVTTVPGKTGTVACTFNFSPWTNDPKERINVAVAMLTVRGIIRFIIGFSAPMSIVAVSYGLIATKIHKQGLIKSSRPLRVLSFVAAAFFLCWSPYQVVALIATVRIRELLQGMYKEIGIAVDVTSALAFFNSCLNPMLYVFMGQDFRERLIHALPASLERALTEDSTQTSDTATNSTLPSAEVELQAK

[2] = biological target: T2, FLAG-Hs_FPR2 C-terminally fused to Renilla Luciferase 8 (human, UniProt P25090 1-351); assay: cell-based or functional assay
T2 sequence (looked up): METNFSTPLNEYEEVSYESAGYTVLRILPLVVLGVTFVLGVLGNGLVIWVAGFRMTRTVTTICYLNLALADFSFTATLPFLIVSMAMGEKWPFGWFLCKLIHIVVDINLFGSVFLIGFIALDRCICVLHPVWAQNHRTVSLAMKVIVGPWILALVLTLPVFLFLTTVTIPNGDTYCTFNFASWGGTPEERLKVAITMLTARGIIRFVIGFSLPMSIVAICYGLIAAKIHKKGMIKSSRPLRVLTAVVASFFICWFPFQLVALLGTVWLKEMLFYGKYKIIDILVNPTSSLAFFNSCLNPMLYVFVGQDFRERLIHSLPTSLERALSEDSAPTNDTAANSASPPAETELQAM

[3] = biological target: T3, FLAG-Mm_Fpr1 C-terminally fused to Renilla Luciferase 8 (mouse, UniProt P33766 1-364); assay: cell-based or functional assay
T3 sequence (looked up): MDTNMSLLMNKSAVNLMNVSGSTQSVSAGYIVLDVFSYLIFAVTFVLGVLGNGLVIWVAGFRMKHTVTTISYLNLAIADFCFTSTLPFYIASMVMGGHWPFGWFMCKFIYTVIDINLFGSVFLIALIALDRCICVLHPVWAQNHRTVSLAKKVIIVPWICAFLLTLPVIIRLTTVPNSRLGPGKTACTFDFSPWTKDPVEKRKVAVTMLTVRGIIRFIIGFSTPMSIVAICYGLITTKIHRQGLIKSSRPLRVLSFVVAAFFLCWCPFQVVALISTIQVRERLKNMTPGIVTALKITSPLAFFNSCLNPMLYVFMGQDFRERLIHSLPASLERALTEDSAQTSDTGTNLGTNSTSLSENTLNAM

[4] = biological target: T4, FLAG-Mm_Fpr2 C-terminally fused to Renilla Luciferase 8 (mouse, UniProt O88536 1-351); assay: cell-based or functional assay
T4 sequence (looked up): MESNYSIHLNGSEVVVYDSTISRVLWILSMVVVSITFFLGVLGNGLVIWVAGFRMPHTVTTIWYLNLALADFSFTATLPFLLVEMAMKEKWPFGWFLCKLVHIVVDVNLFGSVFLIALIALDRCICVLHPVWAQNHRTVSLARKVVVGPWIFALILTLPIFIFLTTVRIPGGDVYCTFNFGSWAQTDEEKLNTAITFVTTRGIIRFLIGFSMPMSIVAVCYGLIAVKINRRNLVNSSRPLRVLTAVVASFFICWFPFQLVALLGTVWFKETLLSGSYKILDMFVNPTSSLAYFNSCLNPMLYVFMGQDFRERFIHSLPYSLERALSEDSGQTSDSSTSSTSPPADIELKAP

[5] = biological target: T5, FLAG-tagged mouse Fpr1 (Mm_Fpr1) (mouse, UniProt P33766 1-364); assay: cell-based or functional assay
T5 sequence (looked up): T3 sequence (looked up)

[6] = biological target: T6, FLAG-tagged mouse Fpr2 (Mm_Fpr2) (mouse, UniProt O88536 1-351); assay: cell-based or functional assay
T6 sequence (looked up): T4 sequence (looked up)

[7] = biological target: T7, FLAG-tagged human FPR1 (Hs_FPR1) (human, UniProt P21462 1-350); assay: cell-based or functional assay
T7 sequence (looked up): T1 sequence (looked up)

[8] = biological target: T8, FLAG-tagged human FPR2 (Hs_FPR2) (human, UniProt P25090 1-351); assay: cell-based or functional assay
T8 sequence (looked up): T2 sequence (looked up)

[9] = biological target: T1, FLAG-Hs_FPR1 C-terminally fused to …; assay: cell-based or functional assay; remark: listed apart in the source
[10] = biological target: T2, FLAG-Hs_FPR2 C-terminally fused to …; assay: cell-based or functional assay; remark: listed apart in the source
[11] = biological target: T3, FLAG-Mm_Fpr1 C-terminally fused to …; assay: cell-based or functional assay; remark: listed apart in the source
[12] = biological target: T4, FLAG-Mm_Fpr2 C-terminally fused to …; assay: cell-based or functional assay; remark: listed apart in the source
[13] = biological target: T5, FLAG-tagged mouse Fpr1 (Mm_Fpr1); assay: cell-based or functional assay; remark: listed apart in the source
[14] = biological target: T6, FLAG-tagged mouse Fpr2 (Mm_Fpr2); assay: cell-based or functional assay; remark: listed apart in the source
[15] = biological target: T7, FLAG-tagged human FPR1 (Hs_FPR1); assay: cell-based or functional assay; remark: listed apart in the source
[16] = biological target: T8, FLAG-tagged human FPR2 (Hs_FPR2); assay: cell-based or functional assay; remark: listed apart in the source
[17] = biological target: T5, FLAG-tagged mouse Fpr1 (Mm_Fpr1); assay: flow cytometry on cells; competition binding: HEK293 cells stably expressing the receptor, lifted in PBS, on ice 90 min with 10 nM K(5/6-FAM)-WKYMVm and increasing unlabeled ligand; mean fluorescence of 5000 cells as % of that without competitor; One site-Fit logIC50
[18] = biological target: T6, FLAG-tagged mouse Fpr2 (Mm_Fpr2); assay: as above
[19] = biological target: T7, FLAG-tagged human FPR1 (Hs_FPR1); assay: as above
[20] = biological target: T8, FLAG-tagged human FPR2 (Hs_FPR2); assay: as above

- BRET of receptor-RLuc8 with Venus-mGsi: Emax (% of 1 μM WKYMVm) [1]: 44.1%
- BRET of receptor-RLuc8 with Venus-mGsi: Emax (% of 1 μM WKYMVm) [2]: 79.2%
- BRET of receptor-RLuc8 with Venus-mGsi: Emax (% of 1 μM WKYMVm) [3]: 37.5%
- BRET of receptor-RLuc8 with Venus-mGsi: Log EC50 (M) [3]: -5.68 log M
- BRET of receptor-RLuc8 with Venus-mGsi: Emax (% of 1 μM WKYMVm) [4]: 87.9%
- BRET of receptor-RLuc8 with Venus-mGsi: Log EC50 (M) [4]: -6.49 log M
- ERK1/2 phosphorylation (Western blot): Emax (% of 1 μM WKYMVm) [5]: 118%
- ERK1/2 phosphorylation (Western blot): Log EC50 (M) [5]: -7.08 log M
- ERK1/2 phosphorylation (Western blot): Emax (% of 1 μM WKYMVm) [6]: 128%
- ERK1/2 phosphorylation (Western blot): Log EC50 (M) [6]: -7.91 log M
- ERK1/2 phosphorylation (Western blot): Emax (% of 1 μM WKYMVm) [7]: 141%
- ERK1/2 phosphorylation (Western blot): Emax (% of 1 μM WKYMVm) [8]: 125%
- BRET of receptor-RLuc8 with Arrestin 3-YFP: Emax (% of 1 μM WKYMVm) [9]: 75%
- BRET of receptor-RLuc8 with Arrestin 3-YFP: Emax (% of 1 μM WKYMVm) [10]: 94.8%
- BRET of receptor-RLuc8 with Arrestin 3-YFP: Emax (% of 1 μM WKYMVm) [11]: 83.1%
- BRET of receptor-RLuc8 with Arrestin 3-YFP: Log EC50 (M) [11]: -5.56 log M
- BRET of receptor-RLuc8 with Arrestin 3-YFP: Emax (% of 1 μM WKYMVm) [12]: 94.3%
- BRET of receptor-RLuc8 with Arrestin 3-YFP: Log EC50 (M) [12]: -6.59 log M
- receptor internalization (flow cytometry): Emax (% of 1 μM WKYMVm) [13]: 99.4%
- receptor internalization (flow cytometry): Log EC50 (M) [13]: -6.29 log M
- receptor internalization (flow cytometry): Emax (% of 1 μM WKYMVm) [14]: 75.6%
- receptor internalization (flow cytometry): Log EC50 (M) [14]: -6.96 log M
- receptor internalization (flow cytometry): Emax (% of 1 μM WKYMVm) [15]: 101%
- receptor internalization (flow cytometry): Emax (% of 1 μM WKYMVm) [16]: 82.3%
- Log IC50 [17]: -5.55 log M
- Max Comp (%) [17]: 85.4%
- Log IC50 [18]: -6.23 log M
- Max Comp (%) [18]: 100%
- Max Comp (%) [19]: 94.9%
- Max Comp (%) [20]: 99.8%
B1: WKYMVM (peptide)
peptide: WKYMVM
notes: synthetic hexapeptide, all L residues; also called L-enantiomer of WKYMVm; source: bought: Tocris
